Legend:
Conditions in all cases: protein: recombinant; tags: untagged; copies: 1;1;1
[1] = biological target: T1, RPA heterotrimer (RPA1-RPA2-RPA3), WT (Homo sapiens, UniProt P27694;P15927;P35244 1-616;1-270;1-121); experiment: fluorescence microscopy, co-partitioning into RPA droplets; equimolar; not enriched in droplets; Droplet assay buffer and temperature not in material; protein stored in diluted Sorensen phosphate buffer (43.4 mM Na2HPO4, 6.6 mM KH2PO4) pH 7.6, 150 mM KCl, 25 uM EDTA, 1 mM DTT
T1 sequence (P27694 whole entry, chain 1 of 3): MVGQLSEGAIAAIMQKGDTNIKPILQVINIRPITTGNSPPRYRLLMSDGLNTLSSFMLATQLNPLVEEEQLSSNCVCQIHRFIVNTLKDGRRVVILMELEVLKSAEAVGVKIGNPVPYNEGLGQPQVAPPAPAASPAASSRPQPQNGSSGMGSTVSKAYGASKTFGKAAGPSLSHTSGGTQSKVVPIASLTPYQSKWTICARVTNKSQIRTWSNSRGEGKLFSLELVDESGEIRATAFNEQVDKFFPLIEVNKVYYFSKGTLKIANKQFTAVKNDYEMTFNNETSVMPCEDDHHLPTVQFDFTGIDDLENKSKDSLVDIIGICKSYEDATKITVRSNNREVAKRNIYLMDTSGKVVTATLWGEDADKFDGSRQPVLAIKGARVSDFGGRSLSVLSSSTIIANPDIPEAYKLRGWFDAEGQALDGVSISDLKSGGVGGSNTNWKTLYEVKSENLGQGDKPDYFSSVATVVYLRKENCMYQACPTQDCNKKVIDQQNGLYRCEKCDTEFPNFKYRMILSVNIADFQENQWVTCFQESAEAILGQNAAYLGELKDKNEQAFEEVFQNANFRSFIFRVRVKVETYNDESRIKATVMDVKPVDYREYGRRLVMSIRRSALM
T1 sequence (P15927 whole entry, chain 2 of 3): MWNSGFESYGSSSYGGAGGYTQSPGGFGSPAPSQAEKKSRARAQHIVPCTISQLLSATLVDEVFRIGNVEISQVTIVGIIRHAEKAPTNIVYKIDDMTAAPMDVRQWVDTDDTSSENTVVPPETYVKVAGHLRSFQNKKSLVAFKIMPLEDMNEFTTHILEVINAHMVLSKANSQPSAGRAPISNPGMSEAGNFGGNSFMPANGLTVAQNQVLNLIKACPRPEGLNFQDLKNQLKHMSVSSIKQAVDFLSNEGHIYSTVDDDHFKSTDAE
T1 sequence (P35244 whole entry, chain 3 of 3): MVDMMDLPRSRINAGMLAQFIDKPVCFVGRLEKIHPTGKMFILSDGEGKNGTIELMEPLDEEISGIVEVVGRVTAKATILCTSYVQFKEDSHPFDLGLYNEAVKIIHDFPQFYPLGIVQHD

[2] = biological target: T1, RPA heterotrimer (RPA1-RPA2-RPA3), WT; experiment: fluorescence microscopy, co-partitioning into RPA droplets; equimolar; co-assembly, indirect evidence of binding; Droplet assay buffer and temperature not in material; protein stored in diluted Sorensen phosphate buffer (43.4 mM Na2HPO4, 6.6 mM KH2PO4) pH 7.6, 150 mM KCl, 25 uM EDTA, 1 mM DTT
[3] = biological target: T1, RPA heterotrimer (RPA1-RPA2-RPA3), WT; experiment: fluorescence microscopy, co-partitioning into RPA droplets; equimolar; Droplet assay buffer and temperature not in material; protein stored in diluted Sorensen phosphate buffer (43.4 mM Na2HPO4, 6.6 mM KH2PO4) pH 7.6, 150 mM KCl, 25 uM EDTA, 1 mM DTT

Binder	binding result [3]	other results
AGUCGUCGCUGCCAUAGCUUUCGAAUCCACUGUUCCACAU (ssRNA) [Cy3-40nt ssRNA]	–	binding result [1]: no binding
AATTGTTATCCGCTCAC (ssDNA) [FAM-17nt ssDNA]	–	binding result [2]: binds
ATGTGGAACAGTGGATTCGAAAGCTATGGCAGCGACGACT (ssDNA) [Cy3-40nt ssDNA]	binds	–
ATGTGGAACAGTGGATTCGAAAGCTATGGCAGCGACGACT (ssDNA) [FAM-40nt ssDNA]	binds	–
